Data reported in the DeepSol protein solubility set.

Experiment: soluble on expression in E. coli; label from the status in PepcDB or PDB records
In the case of “MGSDKIHHHHHHMSEQNLIEVRDLAVEFVTGDQVNRVVDGVSFDIRKGETLALVGESGSGKSVTAHSILRLLPYPLARHPSGSIRYEGKDLLQQSEKTLQRIRGNRIAMIFQEPMTSLNPLHCIEKQINEILLLHKGLTGKEATARTLELLDMVGIPEPRKRLKALPHELSGGQRQRVMIAMALANEPELLIADEPTTALDVTVQLKILELLKELQARMGMALLLISHDLNLVRRIAHRVCVMQRGQIVEQAECATLFSSPQHHYTQMLINAEPSGLPAHNPVGAPLLEVDDLKVWFPIKKGFLQRTVDHVKAVDGVNFSLPQGQTLGIVGESGSGKSTLGLAILRLISSQGGIRFHGQNLEGLNQKAVRPLRREMQVVFQDPFGSLSPRMCVADIVGEGLRIHRIGTAQEQEAAIIAALEEVGLDPRTRHRYPHEFSGGQRQRIAIARALVLKPALILLDEPTSALDRTVQRQVVELLRNLQQKYNLTYLFISHDLAVVKALSHQLMVIKHGHVVEQGDAQAIFHAPQHPYTRQLLEAAFLEVGG”, the “soluble on expression in E. coli” value is reported as “not soluble”. For “MIYEFCAENVTLLEKAMQAGARRIELCDNLAVGGTTPSYGVTKAAVELAANYDTTIMTMIRPRGGDFVYNDLEIAIMLEDIRLTAQAGSQGVVFGALTADKKLDKPNLEKLIAASKGMEIVFHMAFDELSDEDQAEAIDWLSQAGVTRILTRAGVSGDSLEKRFVHYHRILEYAKGKIEILPGGGIDLENRQTFIDQVGVTQLHGTKVVFLEHHHHHH”, the “soluble on expression in E. coli” value was “soluble”. With “MGSDKIHHHHHHMTGIALSPIGALWGIVGAKTHGTVEMGAALTHRGCYMAMEEGPTFSFGARHSAEIWPISVDDDIAVVYSGFPFVVDEETRTPRYLSAEDIRTEFLRFGADFFRVLCGHYAIAVYCYTRHRLILVRDAFGVQSLSWASSNENFAFSTEYKALLSLPWVERNLDHDAARGFVDDGWAPAGRTFLRHISMVLPGSILIWQNGNLETIHLRQDLCKTRPPFRPISVRHVEMTVRETIGWQANDFSPRYGVMLSSGVDSAVIAATLRRIRRDSEIHTFTVGYGYDDPEIIGASATASVLGTQHHEIIVRPDALTALLTDTIVAVDNPGGYEEFPCLYALHQEARQFVDIIFSGNAADTLFAGMPYHRDLLSTDDAIYRRLCNDLTVRDERLAAQELLAGRHGLNFRMPYAERILIDLALEIPDFQKLSPENDKIIFREAARQILPDEITMRPKRIQHLLYDDSMCSWLAERIEWICSSSLLRTHSLGELEGAAILPPRNLELTEESFKAAWNVVALATWASIYLA” the “soluble on expression in E. coli” value was “not soluble”. In the case of “MDLMEEMWISRPQRRMTKLSDLSDGSIARIKFYNANKEYTVDSFKIMFAEYQKSIYCNQEVIGVCHSISDYSYIVDYINNSHFRNELDIFTPEFDKKRTHHITSHKSDKDTLQVRVISNEGVIKSYDMSAIEITFEKMYHIIDKERNGYRSGQL”, the “soluble on expression in E. coli” value is reported as “not soluble”. For “MSKSTRSRRKKKSKGGDRSERKTNKSERKKKGAKSDIGKKKKKNETVSKDQTNTGVSTGAEGVEKKEKEQWSGDETAKKLVASGAFNTSTITSGFKELSNPKPSADMCSIFKNNPKKSRAPDWPIADNKLIKLSHAPGNFICAAKVDVPEFNRTMIVTQIPDVTVSANIEDFWRMIFQEEIVSIVIAVMPLECSVTLQQLFPLLSGTFSNHGKMFLNNKKVDSAVAMTAYTLEVLPDGCSNSLLSTVYHLHNWKQKQGLENVGELVTTVEKVLKTNENTVLMSMNGIGRAGTMLTLFTSMLSVQKSKEVNPKEILIKLRGERSGLVENADQFNTVHRAMALWFKNKCSDEEVQKKVVEFAPNLTTEAVERSSYEYLNSQHFLYPILLESMLHQHQMKQVLLKKVERSMERSKL”, the “soluble on expression in E. coli” value was “not soluble”. With “MGSDKIHHHHHHMFNEDTKFASPYEINVLNELTGKNFQEDDLILLEKLSGMDYRKRVYVSEDQIGTLEFDLLDLTWKFIPSPLYYMIEDPKISLKYTKKRLKGKYIKEELLENPEELNEALKDNFEYIGVKIGDFLGVGVRKEDRVKVKDLSRKKELDFQKIADYLEYNKEYLDEMVENSIEILQDAVEKYKRKGYAINASFSGGKDSAVCTLISKEVIPDLDVVFIDTGLEYPETLNYVKDFVDKYDINLDTVDGDNFWDNLEKEGIPTKDNRWCNSACKLMPLKRYLKKKYGNKKVLTIDGSRKYESFTRANLDYERRSGFIDFQTNVFPILDWNSIDIWSYIYSKDIPYNPMYDKGFERIGCYLCPSALNSEFLRVKELHPDYFERWVKYLKKYFPESEVLRGFWRWDELPPKMVELEENMGVDIDKKKRLKRITQL” the “soluble on expression in E. coli” value was “not soluble”. In the case of “AIAAHVRTYNPRVRVGNWKEDVTLEEETSKEFILQKDRGELTVQKEGALKQSILKPVSLSVSQDGFLHFGDTVMLVNCGDGGHMQRSPCVLSIIADSSNVTSHSQTNTGPHLLGPLQVGGAHSMDPCVRNTFIIISVDGSSDGEVVRYDQSFALKTTGGFAGELFLASDHKSFQKCAKKSRLQELSLVEEFDFLCWWKVLYFDPQDRLENEGYPVQVNNKVLISHCKTNQCLAALSNHILWSQFGKEYELTAHTFLDSHKAEQDNNHWLFSTAHPANQSQSLLQLQQEEHKENQEDTQVKDCS”, the “soluble on expression in E. coli” value is reported as “soluble”. For “MAHHHHHHMKNTVVRIKAELENVKRLFCDDEYLWIFNIRDSTSSLTRDNIQFRKTDILEIPNSRGTANFMIKWTEYPKYSTINFVNTKNSCSYEEVNNNEWRDFASFECRGIELIDFFPSNNFIVEDTKGKLYYDVNLSDQNWCDYNEEHEMCVGIYNLEYEVN”, the “soluble on expression in E. coli” value was “soluble”. In the case of “SLIHIAIVEDENKDRELLKEYLDRFQAEKGEPLFVHVYPDGEEFLESFSSGKFDILLLDIHMQYMNGMATAQEIRKSDENVLIIFITNLVQYAVQGYSVRAFDFIVKPVEYSVFAQKLYRATQRLNRTEG”, the “soluble on expression in E. coli” value is reported as “soluble”. With “MKRIGILTSGGDAPGMNAAVRAVTRVAIANGLEVFGIRYGFAGLVAGDIFPLESEDVAHLINVSGTFLYSARYPEFAEEEGQLAGIEQLKKHGIDAVVVIGGDGSYHGALQLTRHGFNSIGLPGTIDNDIPYTDATIGYDTACMTAMDAIDKIRDTASSHHRVFIVNVMGRNCGDIAMRVGVACGADAIVIPERPYDVEEIANRLKQAQESGKDHGLVVVAEGVMTADQFMAELKKYGDFDVRANVLGHMQRGGTPTVSDRVLASKLGSEAVHLLLEGKGGLAVGIENGKVTSHDILDLFDESHRGDYDLLKLNADLSR” the “soluble on expression in E. coli” value was “soluble”. In the case of “MSLKSIAQEHDCLLIDLDGTVFCGRQPTGGAVQSLSQVRSRKLFVTNNASRSADEVAAHLCELGFTATGEDVVTSAQSAAHLLAGQLAPGARVLIVGTEALANEVAAVGLRPVRRFEDRPDAVVQGLSMTTGWSDLAEAALAIRAGALWVAANVDPTLPTERGLLPGNGSMVAALRTATGMDPRVAGKPAPALMTEAVARGDFRAALVVGDRLDTDIEGANAAGLPSLMVLTGVNSAWDAVYAEPVRRPTYIGHDLRSLHQDSKLLAVAPQPGWQIDVGGGAVTVCANGDVDDLEFIDDGLSIVRAVASAVWEARAADLHQRPLRIEAGDERARAALQRWSLMRSDHPVTSVGTQEGHHHHHH”, the “soluble on expression in E. coli” value is reported as “not soluble”. With “MFRNNYDGDTVTFSPTGRLFQVEYALEAIKQGSVTVGLRSNTHAVLVALKRNADELSSYQKKIIKCDEHMGLSLAGLAPDARVLSNYLRQQCNYSSLVFNRKLAVERAGHLLCDKAQKNTQSYGGRPYGVGLLIIGYDKSGAHLLEFQPSGNVTELYGTAIGARSQGAKTYLERTLDTFIKIDGNPDELIKAGVEAISQSLRDESLTVDNLSIAIVGKDTPFTIYDGEAVAKYI” the “soluble on expression in E. coli” value was “soluble”. With “MAHHHHHHMCLLDVDEYKHTDTPEPRGEILLRGPFLFKGYYMQEKLTREALDEDGWFHTGDVGSITTHGRLRIIGRVKALAKNVLGEYIALEALESMYAHNALCMPNGVCVLVHPARSYICALVLTDETKAMMFAKEHGIEGSYPDILRDPAFQRKATESMQATARKADRQKFECVRHVRVVGDEWTPENEILTAAGKLKRREIDKRYADVIQLLFVEEC” the “soluble on expression in E. coli” value was “not soluble”. In the case of “MRGMLPLFEPKGRVLLVDGHHLAYRTFHALKGLTTSRGEPVQAVYGFAKSLLKALKEDGDAVIVVFDAKAPSFRHEAYGGYKAGRAPTPEDFPRQLALIKELVDLLGLARLEVPGYEADDVLASLAKKAEKEGYEVRILTADKDLYQLLSDRIHVLHPEGYLITPAWLWEKYGLRPDQWADYRALTGDESDNLPGVKGIGEKTARKLLEEWGSLEALLKNLDRLKPAIREKILAHMDDLKLSWDLAKVRTDLPLEVDFAKRREPDRERLRAFLERLEFGSLLHEFGLLESPKALEEAPWPPPEGAFVGFVLSRKEPMWADLLALAAARGGRVHRAPEPYKALRDLKEARGLLAKDLSVLALREGLGLPPGDDPMLLAYLLDPSNTTPEGVARRYGGEWTEEAGERAALSERLFANLWGRLEGEERLLWLYREVERPLSAVLAHMEATGVRLDVAYLRALSLEVAEEIARLEAEVFRLAGHPFNLNSRDQLERVLFDELGLPAIGKTEKTGKRSTSAAVLEALREAHPIVEKILQYRELTKLKSTYIDPLPDLIHPRTGRLHTRFNQTATATGRLCCCDPNLQNIPVRTPLGQRIRRGFIAEEGWLLVALDYSQIELRVLAHLSGDENLIRVFQEGRDIHTETASWMFGVPREAVDPLMRRAAKTINFGVLYGMSAHRLSQELAIPYEEAQAFIERYFQSFPKVRAWIEKTLEEGRRRGYVETLFGRRRYVPDLEARVKSVREAAERMAFNMPVQGTAADLMKLAMVKLFPRLEEMGARMLLQVHDELVLEAPKERAEAVARLAKEVMEGVYPLAVPLEVEVGIGEDWLSAKE”, the “soluble on expression in E. coli” value is reported as “soluble”. In the case of “MSLTDSFTVRSIEGVCFRYPLATPVVTSFGKMLNRPAVFVRVVDEDGVEGWGEAWSNFPAPGAEHRARLINEVLAPGLVGRKLENPAQAFEVLSKGTEVLALQCGEPGPFAQAISGIDLALWDLFARRRNLPLWRLLGGQSSKIKVYASGINPGGAAQTAEAALKRGHRALKLKVGFGAETDIANLSALLTIVGAGMLAADANQGWSVDQALEMLPRLSEFNLRWLEEPIRADRPREEWRKLRANAKMPIAAGENISSVEDFEAALGDDVLGVIQPDIAKWGGLTVCVELARQILRVGKTFCPHYLGGGIGLLASAHLLAAVGRDGWLEVDANDNPLRDLFCGPVADVREGTIELNQNPGLGIVPDLSAIERYRSIEGHHHHHH”, the “soluble on expression in E. coli” value is reported as “not soluble”. With “MAGDPMSGSKTSAEKKESETEKSSDIAQVKIKDVSYTLPSKYDKSTSDDQLVLKVNVAVKNTGKDPLNVDSMDFTLYQGDTKMSDTDPEDYSEKLQGSTINADKSVEGNLFFVVDKGKQYELNYTPESYGDKKPKSVTFKIDGKDKKILATADKLQDSAKALSAYVDVLLFGKDNADFEKITGANKNEIVNDFNESAKDGYLSASGLSSTYADSKALDNIVNGIKEGLSKNSSIQAKTTSISKDEAIVEATVKPVDASSLSDRIEDKVKDYYSKNSSASYEEAVKYALQVYPEEFKKLGPASSEKTVEVKMKKNDIDQWQLDMDDYRAAELVEAFIKELEHHHHHH” the “soluble on expression in E. coli” value was “soluble”. With “MSLKKVTLLVLDGFGVGAMADCEKVKPEDVNANTYKHLREAVDIHIPTLYQLGLGNIVDHLDTARAAYGRCDLAHHGADTFMGHQELMGSKPGVPQKRLMSEVGATIKKNLEKHGYDVRDPVEGAPVLLVNEAVVVGDNLESEVGNIINVVGDFRKLSFEQTIEVGKVVRSSVDTSRVIVYGNKEKTSIDLILSTIKERHPGQWGVDSPKANVYGEGYQVLHLGYGVDYEKQFAHLAEKQRLPVYRIGKTADVIQASGYHNPVVSTRKVLEVYQHEYSKSERDSVFLVNVQETDLAGHKEDCLWYKEVIEEVDRFLASFIDELDEEDLLIITADHGNDPTIGHSNHTREQTPVIIVGPQVRPISIGTRQTMADLAATMADYMGVAPPQYGTSFLHQILREGHHHHHH” the “soluble on expression in E. coli” value was “soluble”. In the case of “MSFLISFDKSKKHPAHLQLANNLKIALALEYASKNLKPEVDNDNAAMELRNTKEPFLLFDANAILRYVMDDFEGQTSDKYQFALASLQNLLYHKELPQQHVEVLTNKAIENYLVELKEPLTTTDLILFANVYALNSSLVHSKFPELPSKVHNAVALAKKH”, the “soluble on expression in E. coli” value is reported as “soluble”.
